In patent US20140154252A1 (EMERGENT PRODUCT DEVELOPMENT SEATTLE, published 2014):
Blank lines part the entries; values can stand above or below the binder they belong to.

Assays:
[1] = biological target: T1, CD28mIgG (UniProt P10747 19-152); assay: Western blot of non-reduced protein probed with CD28 murine IgG, then goat anti-mouse HRP
T1 construct: Bought reagent; the construct is not described; also called CD28Ig (Ancell); CD28 fused to mouse antibody; not shown: mouse Ig part of the bought fusion; not described
Protocol: (§1) Electrophoresis was performed under non-reducing conditions, and without boiling samples prior to loading. After electrophoresis, proteins were transferred to PVDF membranes using a semi-dry electroblotter apparatus (Ellard, Seattle, Wash.) for 1 hour at 100 mAmp. Membranes were blocked in BLOTTO (5% nonfat milk in PBS) overnight with agitation. FIG. 9A: Membranes were incubated with the AbyD02429.2, a Fab directed to the 2H7 antibody, at 5 μg/ml in BLOTTO for one hour, then washed 3 times for 5 minutes each in PBS-0.5% Tween 20. Membranes were then incubated in 6×His-HRP for one hour at a concentration of 0.5 μg/ml. Blots were washed three times for 15 minutes each in PBST. Wet membranes were incubated with ECL solution for 1 minute, followed by exposure to X-omat film for 20 seconds.
(§2) FIG. 9B: Membranes were incubated with CD28Ig (Ancell, Bayport, Minn.) at 10 μg/ml in BLOTTO, then washed three times for 15 minutes each in PBS-0.5% Tween 20. Membranes were then incubated in goat anti-mouse HRP conjugate (CalTag, Burlingame, Calif.) at 1:3000 in BLOTTO. Membranes were washed three times, for 15 minutes each, then incubated in ECL solution for 1 minute, followed by exposure to X-omat film for 20 seconds.

[2] = biological target: T2, CD20 (human, UniProt P11836 1-297); assay: sandwich flow cytometry: 2e12HL on WIL-2S cells (CD20), then CD28mIgG, then FITC anti-mouse
T2 construct: whole, on cells; 2H7 is called murine anti-human CD20; also called CD20 presented on WIL-2S cells; CD20 on Ramos, BJAB, SU-DHL-6 and DoHH2 B cells
T2 sequence (looked up): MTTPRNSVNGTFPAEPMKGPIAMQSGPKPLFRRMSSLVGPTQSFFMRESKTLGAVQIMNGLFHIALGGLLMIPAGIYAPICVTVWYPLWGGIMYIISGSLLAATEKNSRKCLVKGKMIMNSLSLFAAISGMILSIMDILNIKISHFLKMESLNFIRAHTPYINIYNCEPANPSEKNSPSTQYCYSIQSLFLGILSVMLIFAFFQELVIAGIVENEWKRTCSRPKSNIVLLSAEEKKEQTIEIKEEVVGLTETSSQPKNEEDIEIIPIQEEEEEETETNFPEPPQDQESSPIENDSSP

[3] = biological target: T2, CD20; assay: flow cytometry on WIL2-S cells (CD20), purified protein at 5 ug/mL, FITC goat anti-human IgG 1:100
Protocol: Each of the proteins was tested for binding at 5 μg/ml, and binding detected with FITC goat anti-human IgG at 1:100. Control is FITC goat anti-human IgG alone. See the description for FIG. 2 above for more complete descriptions of the modules of the molecules tested.

[4] = biological target: T1, CD28mIgG; assay: Western blot, non-reducing, probed with CD28Ig and goat anti-mouse HRP conjugate
Protocol: as §1, §2

[5] = biological target: T2, CD20; assay: flow cytometry, dilutions of crude COS supernatant on WIL-2S cells (CD20), FITC goat anti-human IgG
Protocol: Seeded plates containing the proteins were incubated on ice for one hour. Subsequently, the wells were washed once with 200 μl 1% FBS in PBS. Goat anti-human antibody labeled with FITC (Fc Sp) at 1:100 was then added to each well, and the plates were again incubated on ice for one hour. The plates were then washed once with 200 μl 1% FBS in PBS and the cells were re-suspended in 200 μl 1% FBS and analyzed by FACS.

B1: TRU-015 (Fc fusion, not shown: a dimerising Fc or GST)
chain: QIVLSQSPAILSASPGEKVTMTCRASSSVSYMHWYQQKPGSSPKPWIYAPSNLASGVPARFSGSGSGTSYSLTISRVEAEDAATYYCQQWSFNPPTFGAGTKLELKDGGGSGGGGSGGGGSSQAYLQQSGAESVRPGASVKMSCKASGYTFTSYNMHWVKQTPRQGLEWIGAIYPGNGDTSYNQKFKGKATLTVDKSSSTAYMQLSSLTSEDSAVYFCARVVYYSNSYWYFDVWGTGTTVTVS
notes: SMIP: scFv-hinge-CH2-CH3; also called 2H7 SMIP; CD20 SMIP (TRU015)
- binding result [1]: no binding

B3: 2H7-sssIgG P238S/P331S-STD1-2e12 VHVL (bispecific antibody)
chain: QIVLSQSPAILSASPGEKVTMTCRASSSVSYMHWYQQKPGSSPKPWIYAPSNLASGVPARFSGSGSGTSYSLTISRVEAEDAATYYCQQWSFNPPTFGAGTKLELKDGGGSGGGGSGGGGSSQAYLQQSGAESVRPGASVKMSCKASGYTFTSYNMHWVKQTPRQGLEWIGAIYPGNGDTSYNQKFKGKATLTVDKSSSTAYMQLSSLTSEDSAVYFCARVVYYSNSYWYFDVWGTGTTVTVSEPKSSDKTHTSPPSPAPELLGGSSVFLFPPKPKDTLMISRTPEVTCVVVDVSHEDPEVKFNWYVDGVEVHNAKTKPREEQYNSTYRVVSVLTVLHQDWLNGKEYKCKVSNKALPASIEKTISKAKGQPREPQVYTLPPSRDELTKNQVSLTCLVKGFYPSDIAVEWESNGQPENNYKTTPPVLDSDGSFFLYSKLTVDKSRWQQGNVFSCSVMHEALHNHYTQKSLSLSPGKNYGGGGSGGGGSGGGGSGNSQVQLKESGPGLVAPSQSLSITCTVSGFSLTGYGVNWVRQPPGKGLEWLGMIWGDGSTDYNSALKSRLSITKDNSKSQVFLKMNSLQTDDTARYYCARDGYSNFHYYVMDYWGQGTSVTVSSGGGGSGGGGSGGGGSGGGGSDIVLTQSPASLAVSLGQRATISCRASESVEYYVTSLMQWYQQKPGQPPKLLISAASNVESGVPARFSGSGSGTDFSLNIHPVEEDDIAMYFCQQSRKVPWTFGGGTKLEIKR
notes: Assembled from modules as m10; also called 2H7-IgG-STD1-2E12 HL; 2H7-2E12 HL
- binding result [3]: binds

B5: 2H7-sssIgG P238S/P331S-STD1-2e12 VLVH (bispecific antibody)
chain: QIVLSQSPAILSASPGEKVTMTCRASSSVSYMHWYQQKPGSSPKPWIYAPSNLASGVPARFSGSGSGTSYSLTISRVEAEDAATYYCQQWSFNPPTFGAGTKLELKDGGGSGGGGSGGGGSSQAYLQQSGAESVRPGASVKMSCKASGYTFTSYNMHWVKQTPRQGLEWIGAIYPGNGDTSYNQKFKGKATLTVDKSSSTAYMQLSSLTSEDSAVYFCARVVYYSNSYWYFDVWGTGTTVTVSEPKSSDKTHTSPPSPAPELLGGSSVFLFPPKPKDTLMISRTPEVTCVVVDVSHEDPEVKFNWYVDGVEVHNAKTKPREEQYNSTYRVVSVLTVLHQDWLNGKEYKCKVSNKALPASIEKTISKAKGQPREPQVYTLPPSRDELTKNQVSLTCLVKGFYPSDIAVEWESNGQPENNYKTTPPVLDSDGSFFLYSKLTVDKSRWQQGNVFSCSVMHEALHNHYTQKSLSLSPGKNYGGGGSGGGGSGGGGSGNSDIVLTQSPASLAVSLGQRATISCRASESVEYYVTSLMQWYQQKPGQPPKLLISAASNVESGVPARFSGSGSGTDFSLNIHPVEEDDIAMYFCQQSRKVPWTFGGGTKLEIKRGGGGSGGGGSGGGGSQVQLKESGPGLVAPSQSLSITCTVSGFSLTGYGVNWVRQPPGKGLEWLGMIWGDGSTDYNSALKSRLSITKDNSKSQVFLKMNSLQTDDTARYYCARDGYSNFHYYVMDYWGQGTSVTVSS
notes: also called 2H7-IgG-STD1-2E12 LH; 2H7-2E12 LH
- binding result [5]: binds

Results, then the binder that gave them:

- binding result [2]: no binding (tested: 5 ug/ml)
B2: 2e12 VHVL SMIP (Fc fusion)
chain: QVQLKESGPGLVAPSQSLSITCTVSGFSLTGYGVNWVRQPPGKGLEWLGMIWGDGSTDYNSALKSRLSITKDNSKSQVFLKMNSLQTDDTARYYCARDGYSNFHYYVMDYWGQGTSVTVSSGGGGSGGGGSGGGGSGGGGSDIVLTQSPASLAVSLGQRATISCRASESVEYYVTSLMQWYQQKPGQPPKLLISAASNVESGVPARFSGSGSGTDFSLNIHPVEEDDIAMYFCQQSRKVPWTFGGGTKLEIKR
notes: SMIP: scFv-hinge-CH2-CH3; also called 2E12IgG-VHVL SMIP; 2e12 HL SMIP; not shown: hinge-CH2-CH3 of human IgG

- binding result [4]: no binding (tested: CD28Ig at 10 µg/ml)
B4: SMIP-sized cleaved fragment (2H7-sss-hIgG) of 2H7-sss-hIgG-H6-2e12 (other)
chain: QIVLSQSPAILSASPGEKVTMTCRASSSVSYMHWYQQKPGSSPKPWIYAPSNLASGVPARFSGSGSGTSYSLTISRVEAEDAATYYCQQWSFNPPTFGAGTKLELKDGGGSGGGGSGGGGSSQAYLQQSGAESVRPGASVKMSCKASGYTFTSYNMHWVKQTPRQGLEWIGAIYPGNGDTSYNQKFKGKATLTVDKSSSTAYMQLSSLTSEDSAVYFCARVVYYSNSYWYFDVWGTGTTVTVSEPKSSDKTHTSPPSPAPELLGGSSVFLFPPKPKDTLMISRTPEVTCVVVDVSHEDPEVKFNWYVDGVEVHNAKTKPREEQYNSTYRVVSVLTVLHQDWLNGKEYKCKVSNKALPASIEKTISKAKGQPREPQVYTLPPSRDELTKNQVSLTCLVKGFYPSDIAVEWESNGQPENNYKTTPPVLDSDGSFFLYSKLTVDKSRWQQGNVFSCSVMHEALHNHYTQKSLSLSPGK
notes: Cleavage product seen on gels and blots, about 52 kDa; also called cleaved forms of the multivalent constructs; peptide fragment containing (2H7-sss-hIgG), and missing the CD28 scFv BD2 portion; not shown: C-terminal end: cleaved at or near the H6 linker, site not determined
